Data published in patent US20220306764A1 (NATIONAL INSTITUTE OF BIOTECHNOLOGY IN THE NEGEV, published 2022).
Changes are numbered by the printed parent chain.

B1: NB8 (VHH)
VHH: QVQLQESGGGSVQAGGSLRLSCARSGWPYSTYSMNWFRQAPGKEREAVAGISSTMSGIIFAESKAGQFTISQDNAKNTVYLQMNNLKPEDTAIYYCAARRDYSLSSSSDDFDYWGQGTQVTVSS
notes: also called nanobody 8; PDB 6XXO; not shown: His tag (NBs purified on Ni-NTA and detected with anti-His)
B2: NB37 (VHH)
VHH: B1 VHH with Q13E
notes: also called nanobody 37; PDB 6XXP; not shown: His tag (NBs purified on Ni-NTA and detected with anti-His)
B3: NB7 (VHH)
VHH: QVQLQESGGGSVQAGGSLRLSCTAPGYTDSNYYMSWFRQAPGKEREWVAGVNTGRGSTSYADSVKGRFTISQDNAKNTMFLQMNSLKPEDTAIYYCAVAACHFCDSLPKTQDEYILWGQGTQVTVSS
notes: also called nanobody 7; anti-PSMA NB7; not shown: His tag (NBs purified on Ni-NTA and detected with anti-His)
B4: NB13 (VHH)
VHH: QVQLQESGGGSVQTGGSLRLSCAASGYTASFSWIGYFRQAPGKEREGVAVINVGVGSTYYADSVKGRFTISRDNTENTISLEMNSLKPEDTGLYYCAGSLRWSRPPNPISEDAYNYWGQGTQVTVSS
notes: also called nanobody 13; not shown: His tag (NBs purified on Ni-NTA and detected with anti-His)

Molecular target: T1, purified extracellular domain of PSMA (prostate-specific membrane antigen), residues 44-750 (UniProt Q04609 44-750)
T1 construct: range 44-750; The limits 44-750 are stated for the immunogen; Docking used PDB 1Z8L; also called soluble PSMA; monomeric PSMA
Assay: SPR (ProteOn XPR36), NB immobilised, soluble PSMA as analyte, 1:1 Langmuir, 25 C
Description: The bottom curve in each sensogram represents the lowest concentration, while the top curve represents the highest concentration. A FACS analysis (n=3) was used to determine the binding of these NBs (0.1-1,000 nM) to PC3-PIP (PSMA⁺) cells (1E) and to PC3-flu (PSMA⁻) cells (1F). For convenience, each fluorescence value was normalized to the fluorescence values at the highest and lowest concentrations of PC3-PIP cells.
The affinity of each NB to PSMA was determined by using surface plasmon resonance (SPR) spectroscopy on a ProteOn XPR36 chip (Bio-Rad, CA). The chip was activated by using sulfo-NHS (0.1 M N-hydroxysuccinimide) and EDC [0.4 M 1-ethyl-3-(3-dimethylaminopropyl)-carbodiimide]. Each NB (0.2 μg) was immobilized in a 10 mM sodium acetate buffer, pH 5.0, at a flow rate of 30 μl/min. Bovine serum albumin (BSA) (3 μg) was immobilized on the chip as a negative control. Unbound esters were deactivated with 1 M ethanolamine HCl at pH 8.5. […] During this time, the association between the NBs and PSMA was measured. The dissociation was measured while flowing 50 μ1/min PBST (namely, a phosphate-buffered saline with 0.005% Tween). For each protein complex, a binding sensogram was generated by subtracting the values of the PSMA response to BSA from those of the PSMA response to the NBs. The dissociation constant (KD) was determined from the Langmuir 1:1 kinetic model. The temperature throughout the binding measurements was set at 25° C.

T1 sequence (Q04609 44-750 limits assumed): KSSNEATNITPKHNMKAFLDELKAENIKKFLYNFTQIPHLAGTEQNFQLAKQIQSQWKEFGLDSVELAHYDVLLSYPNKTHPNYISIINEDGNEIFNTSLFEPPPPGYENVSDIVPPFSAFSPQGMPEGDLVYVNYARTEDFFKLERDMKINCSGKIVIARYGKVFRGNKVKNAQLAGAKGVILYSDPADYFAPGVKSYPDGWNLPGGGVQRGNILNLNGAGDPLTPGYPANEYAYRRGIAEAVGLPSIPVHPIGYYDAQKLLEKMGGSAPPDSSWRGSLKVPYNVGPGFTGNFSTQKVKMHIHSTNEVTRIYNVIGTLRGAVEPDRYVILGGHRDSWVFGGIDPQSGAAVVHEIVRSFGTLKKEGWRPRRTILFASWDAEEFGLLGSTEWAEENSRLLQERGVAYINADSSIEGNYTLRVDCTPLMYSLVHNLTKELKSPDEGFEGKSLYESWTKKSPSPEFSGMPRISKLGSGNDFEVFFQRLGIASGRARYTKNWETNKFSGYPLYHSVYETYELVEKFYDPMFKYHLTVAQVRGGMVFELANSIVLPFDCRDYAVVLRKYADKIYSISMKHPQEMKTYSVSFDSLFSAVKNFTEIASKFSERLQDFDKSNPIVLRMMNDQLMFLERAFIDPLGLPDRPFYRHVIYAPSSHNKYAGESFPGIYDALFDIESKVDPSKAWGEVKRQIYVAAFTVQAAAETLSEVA

Binder	Kd	koff	kon
B1	6 nM	0.00012 s⁻¹	20000 M⁻¹ s⁻¹
B2	3.4 nM	7.5e-05 s⁻¹	22000 M⁻¹ s⁻¹
B3	0.055 nM	3.9e-05 s⁻¹	710000 M⁻¹ s⁻¹
B4	0.6 nM	2.2e-05 s⁻¹	36000 M⁻¹ s⁻¹
